Literature values as cited in paper PMC7761212.

Target: rice hemoglobin (Oryza sativa) (UniProt O04986)

Sequence of rice hemoglobin (O04986 whole entry): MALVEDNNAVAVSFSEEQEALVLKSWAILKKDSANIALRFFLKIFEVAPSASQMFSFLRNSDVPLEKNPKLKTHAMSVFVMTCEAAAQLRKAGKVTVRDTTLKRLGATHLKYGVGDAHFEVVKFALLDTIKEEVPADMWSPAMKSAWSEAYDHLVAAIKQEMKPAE

For rice hemoglobin (from UniProt O04986), which Kd is on record?
The Kd was 80 µM.
